Measured values as given in patent publication US20060210567A1 (AstraZeneca / MedImmune, published 2006).

B1: PD1-28 IgG (antibody, V domains shown)
VH: EVQLVQSGAEVKKPGASVKVSCKASGYRFTSYGISWVRQAPGQGLEWMGWISAYNGNTNYAQKLQGRVTMTTDTSTNTAYMELRSLRSDDTAVYYCARDADYSSGSGYWGQGTLVTVSS
VL: SYELTQPPSVSVSPGQTARITCSGDALPKQYAYWYQQKPGQAPVMVIYKDTERPSGIPERFSGSSSGTKVTLTISGVQAEDEADYYCQSADNSITYRVFGGGTKVTVL
B2: PD1-17 IgG (antibody, V domains shown)
VH: QVQLQESGPGVVKPSGTLSLTCAISGGSIGSGGSIRSTRWWSWVRQSPGKGLEWIGEIYHSGSTNYNPSLKSRVTISLDKSRNHFSLRLNSVTAADTAVYYCARQDYGDSGDWYFDLWGKGTMVTVSS
VL: NFMLTQPHSVSESPGKTVTISCTRSSGSIASNSVQWYQQRPGSSPTTVIYEDNQRPSGVPDRFSGSIDSSSNSASLTVSGLKTEDEADYYCQSSDSSAVVFGSGTKLTVL
notes: also called anti-PD-1 antibody PD1-17
B3: PD1-33 IgG (antibody, V domains shown)
VH: QVQLVQSGAEVKKPGASVRVSCKASGYTLTSYYIHWVRQAPGQGLEWMGIINPRGATISYAQKFQGRVTMTRDTSTSTVYMELRNLKSEDTALYYCATAGIYGFDFDYWGRGTLVTVSS
VL: QSALTQPASVSGSPGQSITISCTGTSNDVGGYNYVSWYQHHPGKAPKLIIYDVTNRPSGVSDRFSGSKSGNTASLTISGLLAEDEGDYYCSSYTIVTNFEVLFGGGTKLTV
B4: PD1-35 IgG (antibody, V domains shown)
VH: QVQLQESGPGLVKPSQTLSLTCTVSGGSISSGAYYWSWIRQHPGKGLEWIGYIYYNGNTYYNPSLRSLVTISVDASKNQFSLKLSSVTAADTAVYYCARASDYVWGGYRYMDAFDIWGRGTLITVSS
VL: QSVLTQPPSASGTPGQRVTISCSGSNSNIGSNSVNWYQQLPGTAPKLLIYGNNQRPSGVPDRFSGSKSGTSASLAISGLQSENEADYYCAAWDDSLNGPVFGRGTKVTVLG
notes: also called PD-35
B5: PD1-28 scFv (scFv, V domains shown)
VH: B1 VH
VL: B1 VL
notes: not shown: scFv linker and domain order
B6: PD1-17 scFv (scFv, V domains shown)
VH: B2 VH
VL: B2 VL
notes: as for B5

biological target: T1, human PD-1 fusion protein (human, UniProt Q15116 25-170); assay: IgG titrated; inhibition of biotinylated human PD-L1 fusion binding to plate-bound human PD-1 fusion
T1 construct: also called Soluble PD-1 fusion protein; human PD-1/IgG chimera; not shown: fusion partner (IgG part of the chimera)
T1 sequence (Q15116 other isoform, or with tags, fused parts or gaps): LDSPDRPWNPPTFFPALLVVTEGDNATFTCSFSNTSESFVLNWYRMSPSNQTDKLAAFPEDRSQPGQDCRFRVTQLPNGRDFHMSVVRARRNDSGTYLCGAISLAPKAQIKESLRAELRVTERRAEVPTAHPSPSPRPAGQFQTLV

IC50 | Binder
1.4 nM | B1
2.5 nM | B2
1.8 nM | B3
2.3 nM | B4

biological target: T1, human PD-1 fusion protein; assay: purified scFv titrated; inhibition of biotinylated human PD-L1 fusion binding to plate-bound human PD-1 fusion
Experimental: ScFv production was induced by addition of 1 mM IPTG to exponentially growing cultures and incubation overnight at 30° C. Crude scFv-containing periplasmic extracts were obtained by subjecting the bacterial pellets from the overnight induction to osmotic shock. Pellets were resuspended in 20% (w/v) sucrose, 50 mM Tris-HCl, pH 7.5, 1 mM EDTA and cooled on ice for 30 minutes. Cellular debris was removed by centrifugation, and the scFv was purified by chromatography and buffer-exchanged into PBS. Purified scFv's (PD1-17, PD1-28, PD1-33, and PD1-35) were tested for the ability to inhibit the binding of biotinylated human PD-L1 fusion protein to human PD-1 fusion protein immobilized on plastic in a 96 well microtiter plate assay. Binding of biotinylated PD-L1 fusion protein was detected with AMDEX-alkaline phosphatase, and the signal generated was measured by reading the absorbance at 405 nm using a microtiter plate reader. Data was expressed as a percentage of the total binding and a titration of scFv concentrations was tested to establish clone potency as calculated IC₅₀ values.

IC50 | Binder
560 nM | B5
726 nM | B6
